Results on 46 substances are retold here after patent US10464978B2, “Peptides and combination of peptides for use in immunotherapy against ovarian cancer and other cancers” (immatics biotechnologies GmbH, priority 2015, dated 2019).

The assay has as its target HLA-A*02:01 (Homo sapiens, UniProt P04439, D140Y/D185E/D98H/E176V/E277Q/G131W/G231S/I119V/I121R/I166T/I218V/L300P/L318F/N151K/N90K/P208A/P217A/Q86G/Q94H/R138H/R169H/T345S). As to the kind of experiment: MHC binding assay: UV-ligand exchange with beta2m ELISA (peptide exchange yield). To be noted: binding to HLA-A*02:01. An excerpt: Candidate peptides for T cell based therapies according to the present invention were further tested for their MHC binding capacity (affinity). The individual peptide-MHC complexes were produced by UV-ligand exchange, where a UV-sensitive peptide is cleaved upon UV-irradiation, and exchanged with the peptide of interest as analyzed. Only peptide candidates that can effectively bind and stabilize the peptide-receptive MHC molecules prevent dissociation of the MHC complexes. To determine the yield of the exchange reaction, an ELISA was performed based on the detection of the light chain ([…]) of stabilized MHC complexes. The assay was performed as generally described in Rodenko et al. (Rodenko et al., 2006).
96 well MAXISorp plates (NUNC) were coated over night with 2 ug/ml streptavidin in PBS at room temperature, washed 4× and blocked for 1 h at 37° C. in 2% BSA containing blocking buffer. […] Peptide-MHC monomers of the UV-exchange reaction were diluted 100 fold in blocking buffer. Samples were incubated for 1h at 37° C., washed four times, incubated with 2 ug/ml HRP conjugated anti-β2m for 1h at 37° C., washed again and detected with TMB solution that is stopped with […]. Absorption was measured at 450 nm. Candidate peptides that show a high exchange yield (preferably higher than 50%, most preferred higher than 75%) are generally preferred for a generation and production of antibodies or fragments thereof, and/or T cell receptors or fragments thereof, as they show sufficient avidity to the MHC molecules and prevent dissociation of the MHC complexes.
As to “153 (FLIANVLYL; listed as Homo sapiens) [compound 153]”, the “Peptide exchange (MHC class I binding score, peptide exchange yield)” value (“Peptide exchange” below) was ““+” (≥10% = +)”.
As for “589 (KLYPQLPAEI; listed as Homo sapiens) [compound 589]”, the “Peptide exchange” value was ““+++” (≥50 = +++)”.
On to “362 (TLYGLSVLL; listed as Homo sapiens) [compound 362]”, for which the “Peptide exchange” value was ““+++” (≥50 = +++)”.
Then “620 (KLLNKIYEA; listed as Homo sapiens) [compound 620]”, with ““++++” (≥75% = ++++)”; and “311 (RLYTGMHTV; listed as Homo sapiens) [compound 311]”, with ““+++” (≥50 = +++)”.
For “90 (TLLQIIETV; listed as Homo sapiens) [compound 90]”, the “Peptide exchange” value is listed as ““+++” (≥50 = +++)”.
Take “271 (LVYPLELYPA; listed as Homo sapiens) [compound 271]”: the “Peptide exchange” value was ““+++” (≥50 = +++)”.
For “491 (GLNDRSDAV; listed as Homo sapiens) [compound 491]”, the “Peptide exchange” value is ““++” (≥20% = ++)”.
Consider “324 (FLYDEIEAEV; listed as Homo sapiens) [compound 324]”, for which the “Peptide exchange” value was ““+++” (≥50 = +++)”.
As for “269 (RVLEVGALQAV; listed as Homo sapiens) [compound 269]”, the “Peptide exchange” value is listed as ““++” (≥20% = ++)”.
For “51 (LLPDLEFYV; listed as Homo sapiens) [compound 51]”, the “Peptide exchange” value is reported as ““++++” (≥75% = ++++)”.
As to “439 (YLLQEIYGI; listed as Homo sapiens) [compound 439]”, the “Peptide exchange” value is ““+++” (≥50 = +++)”.
For “103 (TLAEEVVAL; listed as Homo sapiens) [compound 103]”, the “Peptide exchange” value is given as ““+++” (≥50 = +++)”.
Consider “388 (SLTIDGIRYV; listed as Homo sapiens) [compound 388]”, for which the “Peptide exchange” value is ““+++” (≥50 = +++)”.
To “10 (FLATFPLAAV; listed as Homo sapiens) [compound 10]” belongs ““++++” (≥75% = ++++)”; to “525 (VLLEAGEGLVTI; listed as Homo sapiens) [compound 525]”, ““+++” (≥50 = +++)”.
Take “573 (ILVANAIVGV; listed as Homo sapiens) [compound 573]”: the “Peptide exchange” value is ““+++” (≥50 = +++)”.
Consider “250 (ALSEEGLLVYL; listed as Homo sapiens) [compound 250]”, for which the “Peptide exchange” value was ““+++” (≥50 = +++)”.
As to “33 (VLLSLLEKV; listed as Homo sapiens) [compound 33]”, the “Peptide exchange” value is on record as ““++” (≥20% = ++)”.
With “162 (YQQAQVPSV; listed as Homo sapiens) [compound 162]”, the “Peptide exchange” value was ““+++” (≥50 = +++)”.
Then “120 (ALLGIPLTLV; listed as Homo sapiens) [compound 120]”, with ““+++” (≥50 = +++)”.
Then “201 (RLVDYLEGI; listed as Homo sapiens) [compound 201]”, with ““+++” (≥50 = +++)”; and “12 (SLWPDPMEV; listed as Homo sapiens) [compound 12]”, with ““+++” (≥50 = +++)”.
For the substance “8 (FTLGNVVGMYL; listed as Homo sapiens) [compound 8]”, the “Peptide exchange” value was ““++++” (≥75% = ++++)”.
“143 (LLLDITPEI; listed as Homo sapiens) [compound 143]”: the “Peptide exchange” value is reported as ““++++” (≥75% = ++++)”.
For “466 (VLIANLEKL; listed as Homo sapiens) [compound 466]”, the “Peptide exchange” value was ““++++” (≥75% = ++++)”.
On to “93 (LLQAIKLYL; listed as Homo sapiens) [compound 93]”, for which the “Peptide exchange” value is ““++” (≥20% = ++)”.
On to “247 (VLLPNDLLEKV; listed as Homo sapiens) [compound 247]”, for which the “Peptide exchange” value is given as ““+++” (≥50 = +++)”.
On to “378 (ALGYFVPYV; listed as Homo sapiens) [compound 378]”, for which the “Peptide exchange” value is ““+++” (≥50 = +++)”.
For the substance “63 (YLLPSGGSVTL; listed as Homo sapiens) [compound 63]”, the “Peptide exchange” value is recorded as ““++” (≥20% = ++)”.
As for “190 (FLSSLTETI; listed as Homo sapiens) [compound 190]”, the “Peptide exchange” value is ““+++” (≥50 = +++)”.
With “72 (SLLELDGINL; listed as Homo sapiens) [compound 72]”, the “Peptide exchange” value is listed as ““+++” (≥50 = +++)”.
“465 (QLCDLNAEL; listed as Homo sapiens) [compound 465]”: the “Peptide exchange” value is on record as ““+++” (≥50 = +++)”.
“605 (KLYEAVPQL; listed as Homo sapiens) [compound 605]”: the “Peptide exchange” value is on record as ““+++” (≥50 = +++)”.
In the case of “545 (LLADLLHNV; listed as Homo sapiens) [compound 545]”, the “Peptide exchange” value is ““+++” (≥50 = +++)”.
Then “174 (ALAQYLITA; listed as Homo sapiens) [compound 174]”, with ““+++” (≥50 = +++)”.
Then “111 (YVWGFYPAEV; listed as Homo sapiens) [compound 111]”, with ““+++” (≥50 = +++)”.
To “133 (KVLSNIHTV; listed as Homo sapiens) [compound 133]” belongs ““++” (≥20% = ++)”.
As to “163 (ALDEMGDLLQL; listed as Homo sapiens) [compound 163]”, the “Peptide exchange” value is recorded as ““+++” (≥50 = +++)”.
Regarding “596 (ALLDQTKTLAESAL; listed as Homo sapiens) [compound 596]”, the “Peptide exchange” value is ““+++” (≥50 = +++)”.
To “308 (SQYSGQLHEV; listed as Homo sapiens) [compound 308]” belongs ““+++” (≥50 = +++)”; to “226 (MLYVVPIYL; listed as Homo sapiens) [compound 226]”, ““++” (≥20% = ++)”; to “209 (KLIESKHEV; listed as Homo sapiens) [compound 209]”, ““++” (≥20% = ++)”.
“123 (NLWDLTDASVV; listed as Homo sapiens) [compound 123]”: the “Peptide exchange” value is on record as ““+++” (≥50 = +++)”.
As for “436 (HLAEVSAEV; listed as Homo sapiens) [compound 436]”, the “Peptide exchange” value is on record as ““+++” (≥50 = +++)”.
As for “517 (LLMPIPEGLTL; listed as Homo sapiens) [compound 517]”, the “Peptide exchange” value is reported as ““+++” (≥50 = +++)”.
